Holding throughout (test): cytokine release
Assay [1] deals with T1, EBV LMP1; LMP1*167 peptide on HLA-A*02:01 (human).
T1 peptide: LLVDLLWLL

Assay [2] addresses T2, EBV LMP1; LMP1*32 peptide on HLA-A*02:01 (human).
T2 peptide: LLLALLFWL

The target of assay [3] is T3, EBV LMP1; LMP1*92 peptide on HLA-A*02:01 (human).
T3 peptide: LLLIALWNL

Assay [4] deals with T4, EBV LMP1; LMP1*125 peptide on HLA-A*02:01 (human).
T4 peptide: YLLEMLWRL

Assay [5] deals with T5, EBV LMP1; printed as LMP1*125 (the same label as …) peptide on HLA-A*02:01 (human).
T5 peptide: YLQQNWWTL

Assay [6] deals with T6, EBV LMP1; LMP1*173 peptide on HLA-A*02:01 (human).
T6 peptide: WLLLFLAIL

B1: LMP1*166 S4-12 TCR (TCR, V domains shown)
Valpha: GEQVEQRPPHLSVREGDSAVIICTYTDPNSYYFFWYKQEPGAGLQLLMKVFSSTEINEGQGFTVLLNKKDKQLSLNLTAAHPGDSAVYFCAVSGTGGYKVVFGSGTRLLVSP
Vbeta: NSKVIQTPRYLVKGQGQKAKMRCIPEKGHPVVFWYQQNKNNEFKFLINFQNQEVLQQIDMTEKRFSAECPSNSPCSLEIQSSEAGDSALYLCASNQLGSSYEQYFGPGTRLTVL
B1: the binding result is reported as “recognises” in assay [1]; “no recognition” in assay [2]; “no recognition” in assay [3]; “no recognition” in assay [4]; “no recognition” in assay [5]; “no recognition” in assay [6].
